Measured values reported in patent US20190389923A1 (BIORION TECHNOLOGIES B V, published 2019).
Bridge positions count the residues as written; N and C are the ends. Ends that are not written are not given here.

Tests used:
[1] = target: T1, PDGF-beta receptor on primary freshly isolated rat hepatic stellate cells (rat, UniProt Q05030 32-1097); experiment: FITC-BiPPB on primary rat hepatic stellate cells, fluorescence microscopy
T1 construct: whole, on cells; also called PDGFß-receptor; PDGF-βR
Description: (§1) Cells were seeded in the 8-well glass plates (Lab-Tek, Nunc, Naperville, Ill.) at 30,000 cells/well in the culture medium. […] After 2 h, cells were washed 3 to 4 times with cold PBS and fixed with 4% paraformaldehyde. The nuclei were counterstained with DAPI and mounted in citifluor (anti-fade reagent) and visualized under fluorescent microscope.

[2] = target: T2, PDGF-beta receptor on human cells (primary human myofibroblasts; human hepatic stellate cells LX2) (human, UniProt P09619 33-1106); experiment: FITC-BiPPB on primary freshly isolated human myofibroblasts, fluorescence microscopy
T2 construct: whole, on cells; also called PDGFß-receptor; PDGF-βR
Description: as §1
(§2) Similar binding experiments were performed in primary freshly isolated human myofibroblasts, mouse 3T3 fibroblasts and human hepatic stellate cells (LX2).

[3] = target: T3, PDGF-beta receptor on mouse 3T3 fibroblasts (mouse, UniProt P05622 32-1098); experiment: FITC-BiPPB on mouse 3T3 fibroblasts, fluorescence microscopy
T3 construct: whole, on cells; also called PDGFß-receptor; PDGF-receptor
Description: as §1, §2

Measured: binding result

T2 sequence (P09619 33-1106): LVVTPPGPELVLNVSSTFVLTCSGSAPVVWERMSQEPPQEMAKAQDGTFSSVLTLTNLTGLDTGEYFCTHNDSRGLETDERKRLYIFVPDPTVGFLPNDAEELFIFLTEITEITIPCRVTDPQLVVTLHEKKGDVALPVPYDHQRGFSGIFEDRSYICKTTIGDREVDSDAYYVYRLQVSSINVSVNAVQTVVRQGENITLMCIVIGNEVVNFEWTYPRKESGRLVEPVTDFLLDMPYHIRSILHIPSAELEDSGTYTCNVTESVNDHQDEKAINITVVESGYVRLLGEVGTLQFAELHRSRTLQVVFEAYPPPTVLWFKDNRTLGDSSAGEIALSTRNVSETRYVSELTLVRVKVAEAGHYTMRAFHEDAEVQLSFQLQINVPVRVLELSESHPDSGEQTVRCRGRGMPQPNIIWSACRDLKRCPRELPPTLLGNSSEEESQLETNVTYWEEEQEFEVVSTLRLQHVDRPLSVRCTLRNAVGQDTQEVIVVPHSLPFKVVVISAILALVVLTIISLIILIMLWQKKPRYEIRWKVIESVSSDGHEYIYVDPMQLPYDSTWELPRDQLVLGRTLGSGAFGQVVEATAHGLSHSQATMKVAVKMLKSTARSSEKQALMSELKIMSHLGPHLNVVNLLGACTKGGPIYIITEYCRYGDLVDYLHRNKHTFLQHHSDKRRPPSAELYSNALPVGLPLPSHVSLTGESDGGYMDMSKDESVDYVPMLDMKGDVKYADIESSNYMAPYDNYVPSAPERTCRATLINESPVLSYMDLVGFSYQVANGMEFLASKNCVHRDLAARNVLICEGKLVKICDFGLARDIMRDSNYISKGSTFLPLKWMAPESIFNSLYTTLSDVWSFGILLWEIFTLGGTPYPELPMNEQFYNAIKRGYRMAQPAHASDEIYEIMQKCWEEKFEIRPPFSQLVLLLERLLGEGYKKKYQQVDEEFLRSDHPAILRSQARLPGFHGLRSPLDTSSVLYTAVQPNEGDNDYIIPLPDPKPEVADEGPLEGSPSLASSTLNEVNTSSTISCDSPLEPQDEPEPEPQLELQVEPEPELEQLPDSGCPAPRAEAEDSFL
T3 sequence (P05622 32-1098): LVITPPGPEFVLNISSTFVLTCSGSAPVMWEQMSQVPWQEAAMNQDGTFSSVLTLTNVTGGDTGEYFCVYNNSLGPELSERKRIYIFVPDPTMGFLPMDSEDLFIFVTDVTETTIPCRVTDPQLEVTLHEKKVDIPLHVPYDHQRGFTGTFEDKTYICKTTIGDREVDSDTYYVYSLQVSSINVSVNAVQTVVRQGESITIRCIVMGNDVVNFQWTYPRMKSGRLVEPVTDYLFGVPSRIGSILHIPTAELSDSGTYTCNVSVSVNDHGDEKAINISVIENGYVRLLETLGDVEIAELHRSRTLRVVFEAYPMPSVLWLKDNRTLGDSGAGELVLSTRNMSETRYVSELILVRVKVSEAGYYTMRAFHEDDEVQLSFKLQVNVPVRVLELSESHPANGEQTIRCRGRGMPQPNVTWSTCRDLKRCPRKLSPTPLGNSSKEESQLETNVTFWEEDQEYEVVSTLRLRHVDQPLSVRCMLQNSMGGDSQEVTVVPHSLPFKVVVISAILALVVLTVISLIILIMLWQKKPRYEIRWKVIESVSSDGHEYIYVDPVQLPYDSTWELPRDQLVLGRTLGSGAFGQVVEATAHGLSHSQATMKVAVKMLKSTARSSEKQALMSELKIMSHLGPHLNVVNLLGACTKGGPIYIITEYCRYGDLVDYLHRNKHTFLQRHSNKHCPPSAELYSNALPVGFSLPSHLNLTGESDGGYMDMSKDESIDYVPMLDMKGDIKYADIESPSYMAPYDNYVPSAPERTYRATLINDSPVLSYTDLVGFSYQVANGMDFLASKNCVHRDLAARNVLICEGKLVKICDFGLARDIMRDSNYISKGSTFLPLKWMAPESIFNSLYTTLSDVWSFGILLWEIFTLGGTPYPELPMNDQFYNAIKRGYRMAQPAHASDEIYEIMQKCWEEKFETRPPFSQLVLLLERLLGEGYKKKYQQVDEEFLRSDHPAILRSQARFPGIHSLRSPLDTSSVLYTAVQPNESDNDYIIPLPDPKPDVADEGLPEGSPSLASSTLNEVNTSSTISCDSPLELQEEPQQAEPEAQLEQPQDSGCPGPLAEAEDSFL
T1 sequence (Q05030 32-1097): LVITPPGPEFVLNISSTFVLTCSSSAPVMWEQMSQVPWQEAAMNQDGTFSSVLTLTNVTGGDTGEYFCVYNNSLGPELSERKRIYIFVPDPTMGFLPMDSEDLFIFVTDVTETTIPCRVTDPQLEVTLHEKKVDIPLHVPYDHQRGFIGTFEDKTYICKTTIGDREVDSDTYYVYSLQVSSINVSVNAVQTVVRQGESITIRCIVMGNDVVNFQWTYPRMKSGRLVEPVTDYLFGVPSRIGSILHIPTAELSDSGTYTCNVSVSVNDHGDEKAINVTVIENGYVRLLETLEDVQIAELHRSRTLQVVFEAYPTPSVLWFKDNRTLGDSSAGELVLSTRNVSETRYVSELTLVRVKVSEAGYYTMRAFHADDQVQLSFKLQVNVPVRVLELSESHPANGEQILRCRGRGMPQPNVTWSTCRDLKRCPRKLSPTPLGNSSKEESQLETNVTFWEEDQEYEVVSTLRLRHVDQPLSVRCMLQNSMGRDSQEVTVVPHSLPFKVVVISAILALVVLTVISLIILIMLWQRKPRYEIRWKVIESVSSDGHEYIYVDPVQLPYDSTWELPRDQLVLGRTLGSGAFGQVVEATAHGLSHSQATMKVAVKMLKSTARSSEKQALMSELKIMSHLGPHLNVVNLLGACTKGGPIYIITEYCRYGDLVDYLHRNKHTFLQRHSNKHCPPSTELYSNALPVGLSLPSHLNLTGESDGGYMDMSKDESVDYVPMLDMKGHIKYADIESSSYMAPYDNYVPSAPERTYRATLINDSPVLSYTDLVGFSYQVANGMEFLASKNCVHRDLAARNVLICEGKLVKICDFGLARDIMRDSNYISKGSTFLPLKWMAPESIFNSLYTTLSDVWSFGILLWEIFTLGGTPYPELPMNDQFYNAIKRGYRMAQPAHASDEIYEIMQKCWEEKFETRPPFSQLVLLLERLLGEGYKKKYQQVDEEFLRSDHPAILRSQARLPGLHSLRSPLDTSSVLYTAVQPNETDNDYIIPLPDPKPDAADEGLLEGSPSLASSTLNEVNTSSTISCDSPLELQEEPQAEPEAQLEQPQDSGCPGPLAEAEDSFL

B1: BiPPB (bicyclic PDGF-beta-receptor binding peptide), C(1)SRNLIDC(1)GGGDGGC(2)SRNLIDC(2), FITC-labelled (peptide)
peptide: CSRNLIDCGGGDGGCSRNLIDC
modifications: disulfide 1-8, 15-22; also: FITC label (site not given here)
notes: Used on primary rat hepatic stellate cells; also called FITC-coupled BiPPB
binds: all assays above
